Measured values reported in patent publication US12331106B2, “Anti-angiopoietin-2 antibodies that induce Tie2 activation” (Institute for Basic Science, priority 2018, dated 2025).

Tests used:
[1] = test system: downstream signaling of the Tie2 receptor (Akt phosphorylation) in HUVECs; test: Akt phosphorylation in HUVECs by humanized anti-Ang2 antibodies (immunoblot); type: cell-based, human; conditions: hAng2 1 μg/ml, 30 min, antibody 0.5 μg/ml, maintained until 50 μg/ml
Method: To investigate whether the humanized anti-Ang2 antibodies induce the downstream signaling of the Tie2 receptor in endothelial cells, HUVECs (LONZA™) were treated with human Ang2 protein together with humanized anti-Ang2 antibody. Then, the level of Akt phosphorylation, the main downstream signaling protein of Tie2 receptor was measured by immunoblotting. To compare the degree of Akt activation, cells were treated with full-length hAng2 (R&D® Systems) alone or antibody alone in the experiment.
Specifically, HUVEC cells (1×10^5 cells/ml) were cultured in EGM-2 (LONZA™) at 37° C. in 60 mm culture dish. Cells of 90% confluency were incubated with EBM-2 (LONZA™) for 4 hrs. The serum-starved HUVECs were treated with the mixture of anti-Ang2 antibody and hAng2 protein (1 μg/ml, R&D® Systems), and further incubated for 30 min. The cells were washed with cold PBS, treated with lysis buffer, and lysed at 4° C. for 20 min. Then, the cell lysates were prepared by centrifugation at 13000 rpm for 15 min. 5× SDS sample buffer was added to the cell lysate and the mixture was boiled at 95° C. for 5 min. Then, the mixture was subjected to SDS-PAGE and subsequent Western blotting.
To investigate the phosphorylation of Akt, the membrane was blocked with 5% skim milk-containing TBST for 1 hr at RT, and incubated with anti-phospho-Akt antibody (S473) at 4° C. for about 8 hrs. […]

[2] = test system: tumor vessels of LLC tumor; test: Tumor vessel perfusion (lectin) and hypoxia (Hypoxyprobe) in LLC tumors; type: in vivo, C57BL/6 mice; conditions: compared with Fc or Fc+Cpt
Method: To analyze the functionality of tumor vessels after treatment with 2C8H11, vessel perfusability and hypoxia status were evaluated. Before harvesting tumor mass, the mice were intravenously injected with 100 μl of DyLight™ 488-Lectin (Vector laboratory) and intraperitoneally injected with 60 mg/kg of Pimonidazole-HCl (HYPOXYPROBE™+) dissolved in PBS for 30 min before sacrifice. The mice were perfusion-fixed with 4% PFA. We obtained frozen sections from the tumor mass, which were stained with hamster anti-CD31 antibody (1:200, Millipore®) and 4.3.11.3 mouse Pacific blue-Mab (1:50, HYPOXYPROBE™+) in PBS. The sections were imaged using LSM880 confocal microscope (Zeiss), and the obtained images were analyzed using ImageJ software (http://rsb.info.nih.gov/ij) to quantify Lectin+area/CD31+area and HYPOXYPROBE™+area.
Furthermore, hypoxia, as indicated by HYPOXYPROBE™+area, was decreased in tumors treated with 2C8H11 or 2C8H11+Cpt by 72%, when compared with tumors treated with Fc or Fc+Cpt (FIG. 11C).

[3] = test system: choroidal neovascularization (CNV) / choriocapillaris; test: Laser-induced CNV model, OCTA: CNV volume and choriocapillary regeneration (avascular space); type: in vivo, mice; conditions: for reduction of the avascular space: 5 μg intravitreal at 7 days, change from baseline
Method: To determine the effect of 2C8H11 in CNV regression and choriocapillary regeneration after establishment of CNV, Fc, VEGF-Trap, control antibody or 2C8H11 (5 μg each) was given intravitreally to the mice by the Nanoliter 2000 micro-injector (World Precision Instruments) at 7 days after laser photocoagulation. Intra-vital optical coherence tomography angiography (OCTA) was performed at 6, 14, 21, and 35 days after laser photocoagulation (FIG. 14A). The retinochoroidal layers were imaged using a prototype high-speed swept-source optical coherence tomography (OCT) system, utilizing a custom ring cavity wavelength-swept laser centered at 1048 nm with an A-scan rate of 230 kHz. OCT images were collected in a 1.7 mm×1.7 mm field of view within the retino-choroidal layer to monitor regeneration of choroidal vasculatures at the site of laser photocoagulation after intravitreal injection of reagents. […] Then, by using automatic layer flattening and segmentation algorithms, cross-sectional OCT angiograms were flattened to RPE, and en face OCT angiograms were generated by separate projection of each flattened cross-sectional OCT angiogram in three depth ranges: inner retinal, outer retinal and choroidal layers. The outer plexiform layer and Bruch's membrane were defined as the boundaries separating inner retinal, outer retinal, and choroidal layers. The density of retina and choroid vessel was automatically calculated as the proportion of measured area occupied by flowing blood vessels defined as pixels having decorrelation values above the threshold level. Avascular pixels were detected from the en face OCT angiogram representing choroidal layer by means of the image processing toolbox of MATLAB® (Math Works). Then the total volume of the avascular space surrounding the laser injury site was calculated by summing the number of avascular pixels multiplied by the volume of one pixel. In order to analyze the changing complexion of avascular space volume, serially measured values in each eye were transformed into percentage change from baseline value. […] Overall, these findings indicate that both 2C8H11 and […] promotes regeneration of the choriocapillaris, while VEGF-Trap leads to choriocapillary regression in the laser-induced CNV model.

[4] = test system: CD31+ endothelial cells of CNV; test: Co-localization of subcutaneously injected antibody with CD31 in endothelial cells of CNV; type: in vivo, mice; conditions: 25 mg/kg subcutaneous at 1 day; 2, 4 and 8 days after laser photocoagulation
Method: To investigate whether subcutaneously injected 2C8H11 can also exert the therapeutic effects on CNV, we firstly evaluated co-localization 2C8H11 antibody and CD31 in endothelial cells of CNV. The subcutaneous administration of 2C8H11 antibody (25 mg/kg) was performed at 1 day after laser photocoagulation. As a control, Fc (25 mg/kg) was administered in the same manner to the mice. The co-localization of 2C8H11 antibody and anti-CD31 antibody (1:200, Millipore®) in endothelial cells of CNV was directly detected by anti-human IgG antibody (1:1000, Jackson ImmunoResearch Laboratories) at 2, 4, and 8 days after laser photocoagulation (FIG. 15A).

Akt phosphorylation [1]: increased markedly
B1: 2C8H11: humanized anti-Ang2 human IgG1 antibody from mouse 2C8; VH SEQ ID NO: 55, VL SEQ ID NO: 56 (antibody, V domains shown)
VH: QVQLVQSGAEVKKPGASVKVSCKASGYTFTSYWMHWVRQAPGQGLEWMGMIDPSDSETRLNQKFKDRVTMTRDTSTSTVYMELSSLRSEDTAVYYCARRFYYGSDWYFDVWGQGTLVTVSS
VL: DIQLTQSPSFLSASVGDRVTITCKASQDVGTAVAWYQQKPGKAPKLLIYWASTRHTGVPSRFSGSGSGTEFTLTISSLQPEDFATYYCQQYSSYPLTFGQGTKVEIK
modifications: human IgG1 constant regions; VH; VL
hypoxia decrease (HYPOXYPROBE+ area) [2]: 72%
increase in perfusion (Lectin+ area/CD31+ area) [2]: approximately 3 fold
CNV volume in outer retinas (OCTA) ([3]; 5 μg intravitreal at 7 days after laser photocoagulation): markedly reduced CNV volume
reduction of the avascular space ([3]; 14 days after laser photocoagulation): 30.1%
reduction of the avascular space ([3]; 21 days after laser photocoagulation): 36.4%
reduction of the avascular space ([3]; 35 days after laser photocoagulation): 37.0%
detection of administered antibody in CD31+ endothelial cells in CNV area [4]: highly detectable
